Laboratory results as given in paper PMC9242541, “Importance of Rare DPYD Genetic Polymorphisms for 5-Fluorouracil Therapy in the Japanese Population” (Frontiers in Pharmacology, 2022).

Biological target: the molecule itself
Test: native gel or EMSA; blue native PAGE (Tris-glycine buffer, 5%-20% polyacrylamide gels), 9 μg of the soluble fraction of transfected 293FT cells per lane, immunoblot with polyclonal anti-human DPD antibody; monomer to dimer

Protein	stoichiometry N
DPD variant M321I (enzyme, human, UniProt Q12882 4-1025, looked up, dihydropyrimidine dehydrogenase (DPD), human, DPYD cDNA with a variant found in Japanese individuals; made by site-directed mutagenesis of the wild-type construct; also called 963G > A; source: 293FT cells, transfected (pcDNA3.4), soluble fraction) VLSKDSADIESILALNPRTQTHATLCSTSAKKLDKKHWKRNPDKNCFNCEKLENNFDDIKHTTLGERGALREAMRCLKCADAPCQKSCPTNLDIKSFITSIANKNYYGAAKMIFSDNPLGLTCGMVCPTSDLCVGGCNLYATEEGPINIGGLQQFATEVFKAMSIPQIRNPSLPPPEKMSEAYSAKIALFGAGPASISCASFLARLGYSDITIFEKQEYVGGLSTSEIPQFRLPYDVVNFEIELMKDLGVKIICGKSLSVNEMTLSTLKEKGYKAAFIGIGLPEPNKDAIFQGLTQDQGFYTSKDFLPLVAKGSKAGICACHSPLPSIRGVVIVLGAGDTAFDCATSALRCGARRVFIVFRKGFVNIRAVPEEMELAKEEKCEFLPFLSPRKVIVKGGRIVAMQFVRTEQDETGKWNEDEDQMVHLKADVVISAFGSVLSDPKVKEALSPIKFNRWGLPEVDPETMQTSEAWVFAGGDVVGLANTTVESVNDGKQASWYIHKYVQSQYGASVSAKPELPLFYTPIDLVDISVEMAGLKFINPFGLASATPATSTSMIRRAFEAGWGFALTKTFSLDKDIVTNVSPRIIRGTTSGPMYGPGQSSFLNIELISEKTAAYWCQSVTELKADFPDNIVIASIMCSYNKNDWTELAKKSEDSGADALELNLSCPHGMGERGMGLACGQDPELVRNICRWVRQAVQIPFFAKLTPNVTDIVSIARAAKEGGANGVTATNTVSGLMGLKSDGTPWPAVGIAKRTTYGGVSGTAIRPIALRAVTSIARALPGFPILATGGIDSAESGLQFLHSGASVLQVCSAIQNQDFTVIEDYCTGLKALLYLKSIEELQDWDGQSPATVSHQKGKPVPRIAELMDKKLPSFGPYLEQRKKIIAENKIRLKEQNVAFSPLKRNCFIPKRPIPTIKDVIGKALQYLGTFGELSNVEQVVAMIDEEMCINCGKCYMTCNDSGYQAIQFDPETHLPTITDTCTGCTLCLSVCPIVDCIKMVSRTTPYEPKRGVPLSVNPVC	2
DPD variant V335M (enzyme, human, UniProt Q12882 4-1025, looked up, dihydropyrimidine dehydrogenase (DPD), human, DPYD cDNA with a variant found in Japanese individuals; made by site-directed mutagenesis of the wild-type construct; also called 1003G > A; source: 293FT cells, transfected (pcDNA3.4), soluble fraction) VLSKDSADIESILALNPRTQTHATLCSTSAKKLDKKHWKRNPDKNCFNCEKLENNFDDIKHTTLGERGALREAMRCLKCADAPCQKSCPTNLDIKSFITSIANKNYYGAAKMIFSDNPLGLTCGMVCPTSDLCVGGCNLYATEEGPINIGGLQQFATEVFKAMSIPQIRNPSLPPPEKMSEAYSAKIALFGAGPASISCASFLARLGYSDITIFEKQEYVGGLSTSEIPQFRLPYDVVNFEIELMKDLGVKIICGKSLSVNEMTLSTLKEKGYKAAFIGIGLPEPNKDAIFQGLTQDQGFYTSKDFLPLVAKGSKAGMCACHSPLPSIRGVMIVLGAGDTAFDCATSALRCGARRVFIVFRKGFVNIRAVPEEMELAKEEKCEFLPFLSPRKVIVKGGRIVAMQFVRTEQDETGKWNEDEDQMVHLKADVVISAFGSVLSDPKVKEALSPIKFNRWGLPEVDPETMQTSEAWVFAGGDVVGLANTTVESVNDGKQASWYIHKYVQSQYGASVSAKPELPLFYTPIDLVDISVEMAGLKFINPFGLASATPATSTSMIRRAFEAGWGFALTKTFSLDKDIVTNVSPRIIRGTTSGPMYGPGQSSFLNIELISEKTAAYWCQSVTELKADFPDNIVIASIMCSYNKNDWTELAKKSEDSGADALELNLSCPHGMGERGMGLACGQDPELVRNICRWVRQAVQIPFFAKLTPNVTDIVSIARAAKEGGANGVTATNTVSGLMGLKSDGTPWPAVGIAKRTTYGGVSGTAIRPIALRAVTSIARALPGFPILATGGIDSAESGLQFLHSGASVLQVCSAIQNQDFTVIEDYCTGLKALLYLKSIEELQDWDGQSPATVSHQKGKPVPRIAELMDKKLPSFGPYLEQRKKIIAENKIRLKEQNVAFSPLKRNCFIPKRPIPTIKDVIGKALQYLGTFGELSNVEQVVAMIDEEMCINCGKCYMTCNDSGYQAIQFDPETHLPTITDTCTGCTLCLSVCPIVDCIKMVSRTTPYEPKRGVPLSVNPVC	2
DPD variant G366A (enzyme, human, UniProt Q12882 4-1025, looked up, dihydropyrimidine dehydrogenase (DPD), human, DPYD cDNA with a variant found in Japanese individuals; made by site-directed mutagenesis of the wild-type construct; also called 1097G > C; source: 293FT cells, transfected (pcDNA3.4), soluble fraction) VLSKDSADIESILALNPRTQTHATLCSTSAKKLDKKHWKRNPDKNCFNCEKLENNFDDIKHTTLGERGALREAMRCLKCADAPCQKSCPTNLDIKSFITSIANKNYYGAAKMIFSDNPLGLTCGMVCPTSDLCVGGCNLYATEEGPINIGGLQQFATEVFKAMSIPQIRNPSLPPPEKMSEAYSAKIALFGAGPASISCASFLARLGYSDITIFEKQEYVGGLSTSEIPQFRLPYDVVNFEIELMKDLGVKIICGKSLSVNEMTLSTLKEKGYKAAFIGIGLPEPNKDAIFQGLTQDQGFYTSKDFLPLVAKGSKAGMCACHSPLPSIRGVVIVLGAGDTAFDCATSALRCGARRVFIVFRKAFVNIRAVPEEMELAKEEKCEFLPFLSPRKVIVKGGRIVAMQFVRTEQDETGKWNEDEDQMVHLKADVVISAFGSVLSDPKVKEALSPIKFNRWGLPEVDPETMQTSEAWVFAGGDVVGLANTTVESVNDGKQASWYIHKYVQSQYGASVSAKPELPLFYTPIDLVDISVEMAGLKFINPFGLASATPATSTSMIRRAFEAGWGFALTKTFSLDKDIVTNVSPRIIRGTTSGPMYGPGQSSFLNIELISEKTAAYWCQSVTELKADFPDNIVIASIMCSYNKNDWTELAKKSEDSGADALELNLSCPHGMGERGMGLACGQDPELVRNICRWVRQAVQIPFFAKLTPNVTDIVSIARAAKEGGANGVTATNTVSGLMGLKSDGTPWPAVGIAKRTTYGGVSGTAIRPIALRAVTSIARALPGFPILATGGIDSAESGLQFLHSGASVLQVCSAIQNQDFTVIEDYCTGLKALLYLKSIEELQDWDGQSPATVSHQKGKPVPRIAELMDKKLPSFGPYLEQRKKIIAENKIRLKEQNVAFSPLKRNCFIPKRPIPTIKDVIGKALQYLGTFGELSNVEQVVAMIDEEMCINCGKCYMTCNDSGYQAIQFDPETHLPTITDTCTGCTLCLSVCPIVDCIKMVSRTTPYEPKRGVPLSVNPVC	2
DPD variant H25R (enzyme, human, UniProt Q12882 4-1025, looked up, dihydropyrimidine dehydrogenase (DPD), human, DPYD cDNA with a variant found in Japanese individuals; made by site-directed mutagenesis of the wild-type construct; also called 74A > G; source: 293FT cells, transfected (pcDNA3.4), soluble fraction) VLSKDSADIESILALNPRTQTRATLCSTSAKKLDKKHWKRNPDKNCFNCEKLENNFDDIKHTTLGERGALREAMRCLKCADAPCQKSCPTNLDIKSFITSIANKNYYGAAKMIFSDNPLGLTCGMVCPTSDLCVGGCNLYATEEGPINIGGLQQFATEVFKAMSIPQIRNPSLPPPEKMSEAYSAKIALFGAGPASISCASFLARLGYSDITIFEKQEYVGGLSTSEIPQFRLPYDVVNFEIELMKDLGVKIICGKSLSVNEMTLSTLKEKGYKAAFIGIGLPEPNKDAIFQGLTQDQGFYTSKDFLPLVAKGSKAGMCACHSPLPSIRGVVIVLGAGDTAFDCATSALRCGARRVFIVFRKGFVNIRAVPEEMELAKEEKCEFLPFLSPRKVIVKGGRIVAMQFVRTEQDETGKWNEDEDQMVHLKADVVISAFGSVLSDPKVKEALSPIKFNRWGLPEVDPETMQTSEAWVFAGGDVVGLANTTVESVNDGKQASWYIHKYVQSQYGASVSAKPELPLFYTPIDLVDISVEMAGLKFINPFGLASATPATSTSMIRRAFEAGWGFALTKTFSLDKDIVTNVSPRIIRGTTSGPMYGPGQSSFLNIELISEKTAAYWCQSVTELKADFPDNIVIASIMCSYNKNDWTELAKKSEDSGADALELNLSCPHGMGERGMGLACGQDPELVRNICRWVRQAVQIPFFAKLTPNVTDIVSIARAAKEGGANGVTATNTVSGLMGLKSDGTPWPAVGIAKRTTYGGVSGTAIRPIALRAVTSIARALPGFPILATGGIDSAESGLQFLHSGASVLQVCSAIQNQDFTVIEDYCTGLKALLYLKSIEELQDWDGQSPATVSHQKGKPVPRIAELMDKKLPSFGPYLEQRKKIIAENKIRLKEQNVAFSPLKRNCFIPKRPIPTIKDVIGKALQYLGTFGELSNVEQVVAMIDEEMCINCGKCYMTCNDSGYQAIQFDPETHLPTITDTCTGCTLCLSVCPIVDCIKMVSRTTPYEPKRGVPLSVNPVC	2
DPD variant R353C (enzyme, human, UniProt Q12882 4-1025, looked up, dihydropyrimidine dehydrogenase (DPD), human, DPYD cDNA with a variant found in Japanese individuals; made by site-directed mutagenesis of the wild-type construct; expression after SDS-PAGE was below the lower limit of quantification; also called 1057C > T; source: 293FT cells, transfected (pcDNA3.4), soluble fraction) VLSKDSADIESILALNPRTQTHATLCSTSAKKLDKKHWKRNPDKNCFNCEKLENNFDDIKHTTLGERGALREAMRCLKCADAPCQKSCPTNLDIKSFITSIANKNYYGAAKMIFSDNPLGLTCGMVCPTSDLCVGGCNLYATEEGPINIGGLQQFATEVFKAMSIPQIRNPSLPPPEKMSEAYSAKIALFGAGPASISCASFLARLGYSDITIFEKQEYVGGLSTSEIPQFRLPYDVVNFEIELMKDLGVKIICGKSLSVNEMTLSTLKEKGYKAAFIGIGLPEPNKDAIFQGLTQDQGFYTSKDFLPLVAKGSKAGMCACHSPLPSIRGVVIVLGAGDTAFDCATSALCCGARRVFIVFRKGFVNIRAVPEEMELAKEEKCEFLPFLSPRKVIVKGGRIVAMQFVRTEQDETGKWNEDEDQMVHLKADVVISAFGSVLSDPKVKEALSPIKFNRWGLPEVDPETMQTSEAWVFAGGDVVGLANTTVESVNDGKQASWYIHKYVQSQYGASVSAKPELPLFYTPIDLVDISVEMAGLKFINPFGLASATPATSTSMIRRAFEAGWGFALTKTFSLDKDIVTNVSPRIIRGTTSGPMYGPGQSSFLNIELISEKTAAYWCQSVTELKADFPDNIVIASIMCSYNKNDWTELAKKSEDSGADALELNLSCPHGMGERGMGLACGQDPELVRNICRWVRQAVQIPFFAKLTPNVTDIVSIARAAKEGGANGVTATNTVSGLMGLKSDGTPWPAVGIAKRTTYGGVSGTAIRPIALRAVTSIARALPGFPILATGGIDSAESGLQFLHSGASVLQVCSAIQNQDFTVIEDYCTGLKALLYLKSIEELQDWDGQSPATVSHQKGKPVPRIAELMDKKLPSFGPYLEQRKKIIAENKIRLKEQNVAFSPLKRNCFIPKRPIPTIKDVIGKALQYLGTFGELSNVEQVVAMIDEEMCINCGKCYMTCNDSGYQAIQFDPETHLPTITDTCTGCTLCLSVCPIVDCIKMVSRTTPYEPKRGVPLSVNPVC	2
DPD variant C354Y (enzyme, human, UniProt Q12882 4-1025, looked up, dihydropyrimidine dehydrogenase (DPD), human, DPYD cDNA with a variant found in Japanese individuals; made by site-directed mutagenesis of the wild-type construct; also called 1061G > A; source: 293FT cells, transfected (pcDNA3.4), soluble fraction) VLSKDSADIESILALNPRTQTHATLCSTSAKKLDKKHWKRNPDKNCFNCEKLENNFDDIKHTTLGERGALREAMRCLKCADAPCQKSCPTNLDIKSFITSIANKNYYGAAKMIFSDNPLGLTCGMVCPTSDLCVGGCNLYATEEGPINIGGLQQFATEVFKAMSIPQIRNPSLPPPEKMSEAYSAKIALFGAGPASISCASFLARLGYSDITIFEKQEYVGGLSTSEIPQFRLPYDVVNFEIELMKDLGVKIICGKSLSVNEMTLSTLKEKGYKAAFIGIGLPEPNKDAIFQGLTQDQGFYTSKDFLPLVAKGSKAGMCACHSPLPSIRGVVIVLGAGDTAFDCATSALRYGARRVFIVFRKGFVNIRAVPEEMELAKEEKCEFLPFLSPRKVIVKGGRIVAMQFVRTEQDETGKWNEDEDQMVHLKADVVISAFGSVLSDPKVKEALSPIKFNRWGLPEVDPETMQTSEAWVFAGGDVVGLANTTVESVNDGKQASWYIHKYVQSQYGASVSAKPELPLFYTPIDLVDISVEMAGLKFINPFGLASATPATSTSMIRRAFEAGWGFALTKTFSLDKDIVTNVSPRIIRGTTSGPMYGPGQSSFLNIELISEKTAAYWCQSVTELKADFPDNIVIASIMCSYNKNDWTELAKKSEDSGADALELNLSCPHGMGERGMGLACGQDPELVRNICRWVRQAVQIPFFAKLTPNVTDIVSIARAAKEGGANGVTATNTVSGLMGLKSDGTPWPAVGIAKRTTYGGVSGTAIRPIALRAVTSIARALPGFPILATGGIDSAESGLQFLHSGASVLQVCSAIQNQDFTVIEDYCTGLKALLYLKSIEELQDWDGQSPATVSHQKGKPVPRIAELMDKKLPSFGPYLEQRKKIIAENKIRLKEQNVAFSPLKRNCFIPKRPIPTIKDVIGKALQYLGTFGELSNVEQVVAMIDEEMCINCGKCYMTCNDSGYQAIQFDPETHLPTITDTCTGCTLCLSVCPIVDCIKMVSRTTPYEPKRGVPLSVNPVC	2
